Results: PMC8319186, “Mitochondrial adaptor TRAK2 activates and functionally links opposing kinesin and dynein motors” (Nature Communications, 2021)
One block for each molecule: values may come before it.

How the values were obtained:
[1] = target: dynein heavy chain (endogenous, COS-7); test: co-immunoprecipitation (Halo antibody IP, western blot quantification); details: extracts from COS-7 cells transfected with Myc-KIF5B and Halo-tagged constructs; mean ± s.d. from three independent experiments; parent: est. 0.21; read off a plot
Myc-KIF5C-Halo = target: T1, Myc-KIF5C-Halo (mouse, UniProt P28738 1-956); test: cell-based or functional assay
T1 sequence (looked up): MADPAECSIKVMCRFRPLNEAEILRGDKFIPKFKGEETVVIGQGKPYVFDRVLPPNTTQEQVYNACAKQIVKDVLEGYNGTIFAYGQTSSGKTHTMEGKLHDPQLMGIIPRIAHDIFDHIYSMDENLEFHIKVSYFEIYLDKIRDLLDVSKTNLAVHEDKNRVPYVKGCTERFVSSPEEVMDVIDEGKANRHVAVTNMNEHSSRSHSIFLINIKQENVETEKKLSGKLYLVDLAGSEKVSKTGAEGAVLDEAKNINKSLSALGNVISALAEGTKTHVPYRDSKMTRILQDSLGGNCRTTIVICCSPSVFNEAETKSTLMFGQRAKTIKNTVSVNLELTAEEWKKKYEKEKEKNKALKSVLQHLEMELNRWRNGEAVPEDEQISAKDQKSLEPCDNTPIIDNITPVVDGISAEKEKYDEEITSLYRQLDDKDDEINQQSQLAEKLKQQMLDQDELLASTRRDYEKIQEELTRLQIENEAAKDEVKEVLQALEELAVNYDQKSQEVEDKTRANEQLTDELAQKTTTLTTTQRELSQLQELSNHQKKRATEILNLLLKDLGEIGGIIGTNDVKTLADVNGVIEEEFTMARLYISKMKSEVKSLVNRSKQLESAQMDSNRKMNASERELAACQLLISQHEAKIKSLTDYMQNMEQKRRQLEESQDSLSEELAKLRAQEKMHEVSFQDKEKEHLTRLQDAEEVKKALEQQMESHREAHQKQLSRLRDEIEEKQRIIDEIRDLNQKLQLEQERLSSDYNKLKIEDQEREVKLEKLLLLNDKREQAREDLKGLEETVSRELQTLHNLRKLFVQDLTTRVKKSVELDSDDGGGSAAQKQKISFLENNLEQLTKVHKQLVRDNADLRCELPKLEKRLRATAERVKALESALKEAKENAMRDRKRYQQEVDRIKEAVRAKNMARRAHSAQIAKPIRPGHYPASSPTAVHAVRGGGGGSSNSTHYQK

response [1]: 0.08
Molecule: Halo-TRAK2 (from UniProt O60296) A129V; A130V

response [1]: 0.07
Molecule: Halo-TRAK2 (from UniProt O60296) I132D

frequency of KIF5C runs along dynamic microtubules (single-molecule TIRF of COS-7 lysate) with against without exogenous HA-TRAK2 (Myc-KIF5C-Halo): > 3 fold
B1: HA-TRAK2 (natural protein, UniProt O60296 1-914, looked up)
chain: MSQSQNAIFTSPTGEENLMNSNHRDSESITDVCSNEDLPEVELVSLLEEQLPQYRLKVDTLFLYENQDWTQSPHQRQHASDALSPVLAEETFRYMILGTDRVEQMTKTYNDIDMVTHLLAERDRDLELAARIGQALLKRNHVLSEQNESLEEQLGQAFDQVNQLQHELCKKDELLRIVSIASEESETDSSCSTPLRFNESFSLSQGLLQLEMLQEKLKELEEENMALRSKACHIKTETVTYEEKEQQLVSDCVKELRETNAQMSRMTEELSGKSDELIRYQEELSSLLSQIVDLQHKLKEHVIEKEELKLHLQASKDAQRQLTMELHELQDRNMECLGMLHESQEEIKELRSRSGPTAHLYFSQSYGAFTGESLAAEIEGTMRKKLSLDEESSLFKQKAQQKRVFDTVRIANDTRGRSISFPALLPIPGSNRSSVIMTAKPFESGLQQTEDKSLLNQGSSSEEVAGSSQKMGQPGPSGDSDLATALHRLSLRRQNYLSEKQFFAEEWQRKIQVLADQKEGVSGCVTPTESLASLCTTQSEITDLSSASCLRGFMPEKLQIVKPLEGSQTLYHWQQLAQPNLGTILDPRPGVITKGFTQLPGDAIYHISDLEEDEEEGITFQVQQPLEVEEKLSTSKPVTGIFLPPITSAGGPVTVATANPGKCLSCTNSTFTFTTCRILHPSDITQVTPSSGFPSLSCGSSGSSSSNTAVNSPALSYRLSIGESITNRRDSTTTFSSTMSLAKLLQERGISAKVYHSPISENPLQPLPKSLAIPSTPPNSPSHSPCPSPLPFEPRVHLSENFLASRPAETFLQEMYGLRPSRNPPDVGQLKMNLVDRLKRLGIARVVKNPGAQENGRCQEAEIGPQKPDSAVYLNSGSSLLGGLRRNQSLPVIMGSFAAPVCTSSPKMGVLKED
